# Reference: patent US20190241655A1 (Merck Sharp & Dohme, published 2019)
# Substitutions are numbered along the chain they refer to.
# B1: DX435 (antibody, V domains shown)
# VH: EVQLQQSGPEMVKPGASVKISCKASGYAFTDYNIHWVKKSHGKSPEWIGHIYPYNKDTVFNQNKTKATLTVDKSTTTAYMDLRSLTSEDSAVYYCARGAVGYFDYWGQGTTLTVSS
# VL: DIQMTQSPASLSASVGETVTITCRASGNIHNFLAWYQQKQGKSPQLLVYNAKTLADGVPSRFSGSGSGTQYSLKINSLQPEDFGSYYCQHFWSYPFTFGAGTKLELK
# notes: Mouse hybridoma anti-ILT3 antibody tested as hybridoma supernatant
# B2: DX439 (antibody, V domains shown)
# VH: EVQLQQPGPELVKPGASVKISCKASGYTFTDYNMHWVRQRHGKSLEWIGHIYPYNGNTVYNQRFKNKATLNVDNFSSTAYMELRSLTSEDSAVYYCARGAVGYFDHWGQGTTLTVSS
# VL: B1 VL with K42R, S85N, K103N
# notes: as for B1
# B3: DX440 (antibody, V domains shown)
# VH: EVQLQQSGPELVKPGASVKISCKASGYTFSDYNMHWVKQSHGKSLKWIGHIFPYIGDTVYNQKFTSKATLTVDNSSSTGYMEIRSLTSEDSAVYYCARGAVGYFDYWGQGTTLTVSS
# VL: B1 VL with F32Y, L46F, S85T, Y94F
# notes: as for B1
# B4: DX446 (antibody, V domains shown)
# VH: QIQLVQSGPELKKPGETVKISCKASGYTFTNYRMTWVKQAPGKGLKWMGWINTNTGDPTYAEELKGRFAFSSETSASTAYLQINNLKNEDTATYFCAREGFFNYAMDYWGQGTSVTVSS
# VL: DILLTQSPAILSVSPGKRVSFSCRASQSIGTSIHWYQQRTNGSPRLLIKYASESISGIPSRFSGSGSGTDFTLSINSVESEDIADYYCQQSNSWPPTFGAGTKLELK
# notes: Mouse hybridoma anti-ILT3 antibody tested as hybridoma supernatant; also called Anti-ILT3 (DX446)
# Molecular target: T1, ILT3Fc (human)
# T1 construct: also called ILT3Fc-fusion protein; human ILT3Fc
# T1 sequence (chain, as listed by the source limits assumed): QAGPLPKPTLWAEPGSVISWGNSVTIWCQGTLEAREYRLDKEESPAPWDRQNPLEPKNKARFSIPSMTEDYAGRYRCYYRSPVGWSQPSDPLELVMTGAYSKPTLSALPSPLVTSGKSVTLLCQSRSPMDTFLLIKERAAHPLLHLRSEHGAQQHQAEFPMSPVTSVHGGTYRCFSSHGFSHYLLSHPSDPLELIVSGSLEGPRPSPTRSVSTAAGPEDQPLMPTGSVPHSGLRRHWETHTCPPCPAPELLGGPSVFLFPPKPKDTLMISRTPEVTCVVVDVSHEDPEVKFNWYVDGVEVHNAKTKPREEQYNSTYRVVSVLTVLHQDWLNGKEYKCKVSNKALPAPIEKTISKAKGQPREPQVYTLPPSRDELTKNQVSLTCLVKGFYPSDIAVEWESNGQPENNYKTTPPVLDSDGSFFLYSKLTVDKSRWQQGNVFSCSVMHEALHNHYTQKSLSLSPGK
# Test: Octet (BLI), ILT3Fc on anti-human Fc biosensors, antibody supernatant 167 nM
row,Binder,binding result
1,B1,binds
2,B2,binds
3,B3,binds
4,B4,binds
